Key:
[1] = target: heterologous livipeptin fraction 2.2HET (HPLC fraction at 2.2 minutes from E. coli transformed with pALVP)
[2] = target: T1, heterologous livipeptin fraction 4.4HET (HPLC fraction at 4.4 minutes from E. coli transformed with pALVP)
T1 chain: FR

[3] = target: heterologous livipeptin fraction 4.2HET (HPLC fraction at 4.2 minutes from E. coli transformed with pALVP)

B1: papain (protein)
chain: IPEYVDWRQKGAVTPVKNQGSCGSCWAFSAVVTIEGIIKIRTGNLNEYSEQELLDCDRRSYGCNGGYPWSALQLVAQYGIHYRNTYPYEGVQRYCRSREKGPYAAKTDGVRQVQPYNEGALLYSIANQPVSVVLEAAGKDFQLYRGGIFVGPCGNKVDHAVAAVGYGPNYILIKNSWGTGWGENGYIRIKRGTGNSYGVCGLYTSSFYPVKN
- anti-proteolytic activity (enzymatic assay) [1]: The anti-proteolytic activity of fractions 2.2, 4.2 and 4.4HET was confirmed through the enzymatic assay described previously, resulting active against papain
- anti-proteolytic activity (enzymatic assay) [2]: The anti-proteolytic activity of fractions 2.2, 4.2 and 4.4HET was confirmed through the enzymatic assay described previously, resulting active against papain
- anti-proteolytic activity (enzymatic assay) [3]: The anti-proteolytic activity of fractions 2.2, 4.2 and 4.4HET was confirmed through the enzymatic assay described previously, resulting active against papain

Source: patent publication US10414796
